Some targets named below: human Sirt2 (human) (UniProt Q8IXJ6); human Sirt5 (human) (UniProt Q9NXA8); human Sirt3 (human) (UniProt Q9NTG7); human Sirt1 (human) (UniProt Q96EB6).
Common to all, as to assay: cell-based or functional assay

Sequence of human Sirt2 (human) (Q8IXJ6 whole entry): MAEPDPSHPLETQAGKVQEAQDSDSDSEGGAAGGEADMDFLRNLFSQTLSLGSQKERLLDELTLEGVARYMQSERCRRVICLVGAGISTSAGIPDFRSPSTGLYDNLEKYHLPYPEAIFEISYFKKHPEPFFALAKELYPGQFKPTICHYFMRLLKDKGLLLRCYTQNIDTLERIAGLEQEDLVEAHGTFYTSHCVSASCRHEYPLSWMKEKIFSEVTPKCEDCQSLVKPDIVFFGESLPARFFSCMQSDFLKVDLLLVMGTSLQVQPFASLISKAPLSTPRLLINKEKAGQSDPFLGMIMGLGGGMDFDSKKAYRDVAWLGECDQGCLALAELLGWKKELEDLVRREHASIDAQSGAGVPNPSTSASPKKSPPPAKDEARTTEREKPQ
Sequence of human Sirt3 (human) (Q9NTG7 102-399 limits assumed): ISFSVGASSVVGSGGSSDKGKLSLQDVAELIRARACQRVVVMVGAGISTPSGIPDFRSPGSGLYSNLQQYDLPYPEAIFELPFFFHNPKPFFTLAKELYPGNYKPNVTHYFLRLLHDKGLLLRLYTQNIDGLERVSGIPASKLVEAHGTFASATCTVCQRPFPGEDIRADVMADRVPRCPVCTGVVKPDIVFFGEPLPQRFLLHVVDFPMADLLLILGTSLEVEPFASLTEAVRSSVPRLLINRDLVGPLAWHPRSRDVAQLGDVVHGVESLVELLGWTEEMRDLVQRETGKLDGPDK
Sequence of human Sirt5 (human) (Q9NXA8 whole entry): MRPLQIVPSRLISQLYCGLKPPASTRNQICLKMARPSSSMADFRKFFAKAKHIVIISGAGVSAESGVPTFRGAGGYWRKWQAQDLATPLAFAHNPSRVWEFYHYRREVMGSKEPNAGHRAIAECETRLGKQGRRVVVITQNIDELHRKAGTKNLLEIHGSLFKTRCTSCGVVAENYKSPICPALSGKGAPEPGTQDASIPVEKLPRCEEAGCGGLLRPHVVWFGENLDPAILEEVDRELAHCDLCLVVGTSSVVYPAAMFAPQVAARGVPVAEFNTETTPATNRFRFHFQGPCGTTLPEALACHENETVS
Sequence of human Sirt1 (human) (Q96EB6 whole entry): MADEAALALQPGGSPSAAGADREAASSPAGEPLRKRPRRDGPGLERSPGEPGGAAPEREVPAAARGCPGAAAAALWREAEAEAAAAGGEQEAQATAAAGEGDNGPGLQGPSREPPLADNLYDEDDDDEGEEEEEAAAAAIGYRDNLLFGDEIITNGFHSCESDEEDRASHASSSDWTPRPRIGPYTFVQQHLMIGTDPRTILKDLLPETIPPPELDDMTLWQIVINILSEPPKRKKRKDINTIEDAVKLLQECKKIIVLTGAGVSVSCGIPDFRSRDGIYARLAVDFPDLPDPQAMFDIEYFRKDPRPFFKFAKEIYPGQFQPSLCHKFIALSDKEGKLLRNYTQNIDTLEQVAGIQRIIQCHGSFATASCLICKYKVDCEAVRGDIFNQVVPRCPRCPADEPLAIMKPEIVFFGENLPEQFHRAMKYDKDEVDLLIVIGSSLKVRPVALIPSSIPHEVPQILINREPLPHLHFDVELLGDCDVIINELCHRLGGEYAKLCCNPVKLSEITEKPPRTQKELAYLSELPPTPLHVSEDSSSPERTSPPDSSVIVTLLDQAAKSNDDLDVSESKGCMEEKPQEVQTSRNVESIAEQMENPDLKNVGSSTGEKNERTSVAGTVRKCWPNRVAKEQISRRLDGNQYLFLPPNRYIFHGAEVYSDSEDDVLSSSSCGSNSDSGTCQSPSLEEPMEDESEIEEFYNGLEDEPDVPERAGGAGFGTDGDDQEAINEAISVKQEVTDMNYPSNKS

With H3K9 thioacetyl peptide (H3K9 TAc), the IC50 (µM), inhibition of sirtuin deacylase activity in the test with human Sirt2 (human) is 2 µM; with human Sirt5 (human), over 100 µM; in the test with human Sirt3 (human) it was 2 µM; with human Sirt1 (human), 1 µM.

The values are drawn from patent US20150057236A1.
